Results on two substances are retold here after patent US10010626B2, “Molecular constructs with targeting and effector moieties” (Immunwork Inc., priority 2015, dated 2018).

For one experiment, the target named is human TNF-α (Homo sapiens, UniProt P01375). Put plainly: ELISA analysis of purified scFv of adalimumab. The settings on record: compared with Expi-293F-produced scFv of adalimumab. It is filed as binding. Here is the method:
The expression plasmid was then transformed into Pichia pastoris by electroporation. To screen for high yield clones, ELISA was performed to measure the expression levels of scFv of adalimumab. Out of 480 transformants, five were selected for further protein induction and examination by SDS-PAGE. The clone scFv_1-A2 was selected for subsequent large-scale fermentation.
The high-yield clone scFv_1-A2 was inoculated in 100 mL of buffered glycerol-complex medium (BMGY, containing 1% yeast extract, 2% peptone, 100 mM K3PO4, 1.34 YNB, 0.4 mg/L biotin and 1% glycerol, pH 6.0) and cultured at 30° C., 200 rpm for 24 hours. On the next day, the culture was changed to a fermentation condition maintaining at 30° C., 30% of dissolved oxygen and pH 6.0. After being fermented for 24 hours, nitrogen source (YE, peptone) and methanol (0.5%, v/v) was added to induce protein expression. The culture supernatant was harvested for protein purification.
Background: ELISA stands for enzyme-linked immunosorbent assay.

The next experiment addresses T1, CD20 (Homo sapiens, UniProt P11836).
T1 sequence (P11836 1-297): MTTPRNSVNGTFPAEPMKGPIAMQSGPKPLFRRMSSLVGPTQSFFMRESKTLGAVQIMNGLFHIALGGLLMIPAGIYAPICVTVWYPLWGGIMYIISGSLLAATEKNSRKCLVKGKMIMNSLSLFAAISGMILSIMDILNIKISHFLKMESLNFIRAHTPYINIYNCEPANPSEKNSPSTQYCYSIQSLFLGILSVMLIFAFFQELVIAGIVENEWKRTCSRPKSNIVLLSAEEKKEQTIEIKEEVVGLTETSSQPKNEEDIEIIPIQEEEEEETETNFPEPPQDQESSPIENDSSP
Put plainly: Apoptosis by anti-CD20 Fab in a 4-arm PEG linker. The note with it: PEG arm of about 1,000-1,200 daltons (about 25-30 ethylene glycol units). It is filed as cell-based.

Chain of human TNF-α (P01375 77-233 limits assumed): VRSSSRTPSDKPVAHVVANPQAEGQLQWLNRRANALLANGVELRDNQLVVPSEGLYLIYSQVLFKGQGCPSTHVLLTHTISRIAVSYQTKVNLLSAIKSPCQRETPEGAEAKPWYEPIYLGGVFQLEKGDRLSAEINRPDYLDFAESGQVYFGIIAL

“yeast-produced scFv of adalimumab: scFv of adalimumab produced by Pichia pastoris clone scFv_1-A2”: the “binding to human TNF-α (ELISA)” value with human TNF-α is given as “bound to human TNF-α equally well as Expi-293F-produced scFv of adalimumab”.

As for “anti-CD20 (rituximab) Fab in a 4-arm PEG linker: anti-CD20 (rituximab) Fab in a 4-arm PEG linker, PEG arm of about 1,000-1,200 daltons”, in the experiment with CD20, the causing apoptosis result is recorded as “effective in causing apoptosis”.
